The text below walks through data of patent US8492329B2, “Bioactive peptides and methods of using same” (Compugen Ltd., priority 2007, dated 2013).

“Also recorded” adds a separate entry of the source. No end group written: not given here.

One assay has as its target T1, LGR7 (RXFP1) (Homo sapiens, UniProt Q9HBX9).
T1 sequence (Q9HBX9 1-757): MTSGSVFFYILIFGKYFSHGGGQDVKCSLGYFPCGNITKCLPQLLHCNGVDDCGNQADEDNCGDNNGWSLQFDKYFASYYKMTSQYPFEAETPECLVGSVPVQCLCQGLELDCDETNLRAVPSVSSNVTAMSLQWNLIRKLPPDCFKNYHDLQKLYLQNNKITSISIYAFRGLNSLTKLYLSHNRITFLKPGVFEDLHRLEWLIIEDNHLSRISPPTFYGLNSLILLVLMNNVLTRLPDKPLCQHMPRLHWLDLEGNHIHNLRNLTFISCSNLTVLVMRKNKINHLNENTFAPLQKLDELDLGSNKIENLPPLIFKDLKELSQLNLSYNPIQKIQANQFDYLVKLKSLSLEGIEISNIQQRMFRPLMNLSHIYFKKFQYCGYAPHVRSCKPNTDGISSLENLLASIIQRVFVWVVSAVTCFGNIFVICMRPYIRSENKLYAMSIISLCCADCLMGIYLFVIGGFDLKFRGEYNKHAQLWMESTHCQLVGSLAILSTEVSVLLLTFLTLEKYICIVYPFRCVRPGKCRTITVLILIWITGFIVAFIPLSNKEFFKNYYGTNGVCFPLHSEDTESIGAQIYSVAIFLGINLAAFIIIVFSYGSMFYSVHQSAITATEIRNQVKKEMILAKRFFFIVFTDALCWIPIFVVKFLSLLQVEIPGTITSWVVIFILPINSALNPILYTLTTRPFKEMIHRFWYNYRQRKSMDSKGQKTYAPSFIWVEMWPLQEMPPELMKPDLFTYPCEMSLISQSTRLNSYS
The experiment in a line: ACEA RT-CES cell impedance, LGR7 transfected CHO-K1 cells. In kind it is cell-based. Details: expressed in transfected cells; host or cells: CHO-K1 (transient). The settings on record: for dose response of normalized cell index: end point of the experiment, FIG. 16-19; for affinity to LGR7 compared with other ligands: from cell impedance dose response; for effect on cell impedance (normalized cell index): P74C13V 10 uM, H2 Relaxin 1 uM, FIG. 13. From the text: (§1) ACEA RT-CES screen is a noninvasive and label-free assay for GPCRs that can be used with both engineered and nonengineered cell lines. The assay is based on using cell-electrode impedance to measure minute changes in cellular morphology as a result of ligand-dependent GPCR activation and is described in Naichen Yu, et al., Anal. Chem., 78 (1), 35-43, 2006. 10.1021/ac051695v S0003-2700(05)01695-1. The Rho family of small GTPases, which include Rho, Rac, and CDC42, are well-characterized effectors of oncogenes, growth factor and adhesion-mediated signaling pathways and are not classically thought of as being key effectors for GPCRs. Rho family GTPases participate in a number of cellular processes, the main one being regulation and maintenance of specific structures within the actin cytoskeleton framework. […] The current view of the actin cytoskeleton is that of a dynamic and plastic system that is a reflection and manifestation of the intracellular signaling and not simply a static structure designed to maintain cellular architecture. Since GPCRs couple to the actin cytoskeletal network and induce very defined morphological changes, it is possible to harness this information as a functional and biologically relevant readout for GPCRs.
(§2) ACEA biosciences; has designed electronic cell sensor arrays embedded in the bottom of the well of microtiter plates that are capable of measuring minute changes in cell morphology. The electronic sensors measure changes in cell-substrate impedance as a result of the disruption of the ionic environment due to the presence of cell and cell morphology dynamics. The main advantages offered by using cell-substrate impedance and cell morphology as a readout are that both exogenously expressed and endogenous receptors can be assayed without the need for engineering the cell with promiscuous G proteins and reporters or labeling the cells with dyes. In addition, since the readout is noninvasive, multiple stimulations with the same ligand or different ligands can be performed to assess events such as desensitization and receptor cross-talk. Finally, another major aspect of using cell-substrate impedance and cell morphology as a readout is that potentially all GPCRs, regardless of the signaling pathways, can be functionally monitored.
Peptides were synthesized by the solid phase peptide synthesis (SPPS) method, cleaved from the resin, and purified by RP-HPLC unless stated otherwise. The peptide's identity was verified by mass spectrometry. Final purity of peptide was >90% as measured by RP-HPLC. Peptides were diluted in Water (DDW—high purity) containing 0.1% BSA. In some cases peptides were dissolved in Tris-HCl buffer (pH8.2). In other cases either the addition of 1% DMSO or a brief sonication was required. All plates were stored at −80 C until use.
Cells: CHOk1 cell-line (ATCC CCL-61). Cells were maintained and propagated in F-12 HAM nutrient mix (Gibco. Cat# 21765-029) supplemented with 10% HI-FBS (Biological Ind. Cat#04-121-1), 2.5 mL of 200 mm L-Glutamine in Saline Solution (Biological Ind. Cat#03-020-1), 5 mL of Penicillin-Streptomycin Solution 10000/mL Penicillin G & 10 mg/mL Streptomycin Sulfate (Biological Ind. Cat#03-031-1).
One day before the transfection 2×10^6 CHO-k1 cells were plated in T75 flask containing 10 mL of complete growth medium. On the transfection date, FUGENE6 transfection reagent was warmed to ambient temperature by 15 minutes incubation at room temperature and mixed prior to use by vortex.
The transfected DNA mix was prepared in another sterile microfuge tube; Total of 2 μg plasmid DNA mixture which is composed of […] of the target GPCR plasmid and of 2 μg of pIRES plasmid carrying eGFP reporter gene.
The plasmids DNA mixture was then added to the transfection reagent tube and incubated 35 min at RT with gently tapping once every 5 minutes to mix the contents. The DNA-FuGene complex was added drop wise to flask and spread by gentle swirling. […]

A further assay has as its target LGR8 (RXFP2) (Homo sapiens, UniProt Q8WXD0). Nature of the assay: ACEA RT-CES cell impedance, LGR8 transfected CHO-K1 cells. It counts as cell-based. Details: expressed in transfected cells; host or cells: CHO-K1 (transient). The following applies: P74C13V 10 uM, P59C13V 10 uM, H2 Relaxin 1 uM, FIG. 14.
Excerpt: as §1
as §2, with “Finally, another major aspect of using cell-substrate impedance and cell morphology as a readout is that potentially all GPCRs, regardless of the signaling pathways, can be functionally monitored.” left out

Chain of LGR8 (RXFP2) (Q8WXD0 whole entry): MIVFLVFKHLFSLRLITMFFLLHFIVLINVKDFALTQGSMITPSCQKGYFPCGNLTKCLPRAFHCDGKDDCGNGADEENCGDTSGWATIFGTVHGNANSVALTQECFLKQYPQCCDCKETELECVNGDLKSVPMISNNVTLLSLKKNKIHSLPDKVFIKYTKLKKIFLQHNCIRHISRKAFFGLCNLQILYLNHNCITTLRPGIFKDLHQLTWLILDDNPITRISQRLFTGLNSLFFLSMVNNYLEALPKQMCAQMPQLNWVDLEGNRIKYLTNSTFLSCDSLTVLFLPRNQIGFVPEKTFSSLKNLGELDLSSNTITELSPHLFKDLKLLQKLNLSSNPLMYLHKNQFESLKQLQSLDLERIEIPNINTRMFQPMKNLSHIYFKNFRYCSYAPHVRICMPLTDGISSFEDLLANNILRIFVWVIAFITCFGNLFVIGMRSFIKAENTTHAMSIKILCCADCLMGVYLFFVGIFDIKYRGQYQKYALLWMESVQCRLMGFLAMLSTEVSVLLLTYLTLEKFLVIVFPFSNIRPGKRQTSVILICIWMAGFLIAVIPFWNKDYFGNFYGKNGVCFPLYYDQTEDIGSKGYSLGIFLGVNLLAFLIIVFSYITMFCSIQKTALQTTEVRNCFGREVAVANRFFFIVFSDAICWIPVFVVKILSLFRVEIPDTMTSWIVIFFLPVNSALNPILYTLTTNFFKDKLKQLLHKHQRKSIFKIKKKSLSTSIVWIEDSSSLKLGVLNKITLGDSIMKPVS

Consider “GQKGQVGPPGAAVRRAYAAFSV [Peptide P59C13V]”, for which, in the assay with LGR7 (RXFP1), the “dose response of normalized cell index” value is recorded as “moderate dose response for the high concentrations; also recorded: mild dose dependent activation” and the “affinity to LGR7 compared with other ligands” value is given as “significantly lower than that of H2 Relaxin or P74C13V”. In the assay with LGR8 (RXFP2), the “effect on cell impedance (normalized cell index)” value (shortened to “effect … (normalized cell index)”) is “no significant effect as compared to BSA”.
“GQKGQVGPPGAAVRRAYAAFSVGRRAYAAFSV-OH [Peptide P74C13V]”: at LGR7 (RXFP1), the “effect … (normalized cell index)” value was “stronger than the effect of H2 Relaxin”, the “dose response of normalized cell index” value is on record as “clear dose dependent activation” and the “affinity to LGR7 compared with other ligands” value is listed as “lower than that of H2 Relaxin”. The “effect … (normalized cell index)” value on LGR8 (RXFP2) is “strong cellular effect”.
For the substance “AYAAFSV-Amide (AYAAFSV-NH2) [Peptide P59-S-Amide]”, the “dose response of normalized cell index” value in the assay with LGR7 (RXFP1) is on record as “moderate dose response for the high concentrations; also recorded: no dose response was demonstrated”.
As for “H2 Relaxin: H2 Relaxin (ACS), positive control, known ligand of LGR7 (RXFP1) [reference compound]”, in the assay with LGR7 (RXFP1), the “effect … (normalized cell index)” value was “capable of activating a cellular response” and the “dose response of normalized cell index” value is recorded as “clear dose dependent activation”. Further, the “effect … (normalized cell index)” value with LGR8 (RXFP2) is listed as “strong cellular effect”.
